B1: Lysine-specific demethylase hairless (Mus musculus), Q61645 (parent)
chain: MESMPSFLKDTPAWEKTAPVNGIVGQEPGTSPQDGLRHGALCLGEPAPFWRGVLSTPDSWLPPGFLQGPKDTLSLVEGEGPRNGERKGSWLGGKEGLRWKEAMLAHPLAFCGPACPPRYGPLIPEHSGGHPKSDPVAFRPLHCPFLLETKILERAPFWVPTCLPPYLMSSLPPERPYDWPLAPNPWVYSGSQPKVPSAFGLGSKGFYHKDPNILRPAKEPLAESGMLGLAPGGHLQQACESEGPSLHQRDGETGAGRQQNLCPVFLGYPDTVPRAPWPSCPPGLVHSLGNIWAGPGSNSLGYQLGPPATPRCPSPGPPTPPGGCCSSHLPAREGDLGPCRKCQDSPEGGSSGPGESSEERNKADSRACPPSHHTKLKKTWLTRHSEQFECPGGCSGKEESPATGLRALKRAGSPEVQGASRGPAPKRPSHPFPGTGRQGARAWQETPETIIGSKAEAEQQEEQRGPRDGRIRLQESRLVDTSCQHHLAGVTQCQSCVQAAGEVGVLTGHSQKSRRSPLEEKQLEEEDSSATSEEGGGGPGPEASLNKGLAKHLLSGLGDRLCRLLRKEREALAWAQREGQGPAMTEDSPGIPHCCSRCHHGLFNTHWRCSHCSHRLCVACGRIAGAGKNREKTGSQEQHTDDCAQEAGHAACSLILTQFVSSQALAELSTVMHQVWAKFDIRGHCFCQVDARVWAPGDGGQQKEPTEKTPPTPQPSCNGDSNRTKDIKEETPDSTESPAEDGAGRSPLPCPSLCELLASTAVKLCLGHDRIHMAFAPVTPALPSDDRITNILDSIIAQVVERKIQEKALGPGLRAGSGLRKGLSLPLSPVRTRLSPPGALLWLQEPRPKHGFHLFQEHWRQGQPVLVSGIQKTLRLSLWGMEALGTLGGQVQTLTALGPPQPTNLDSTAFWEGFSHPETRPKLDEGSVLLLHRTLGDKDASRVQNLASSLPLPEYCAHQGKLNLASYLPLGLTLHPLEPQLWAAYGVNSHRGHLGTKNLCVEVSDLISILVHAEAQLPPWYRAQKDFLSGLDGEGLWSPGSQTSTVWHVFRAQDAQRIRRFLQMVCPAGAGTLEPGAPGSCYLDAGLRRRLREEWGVSCWTLLQAPGEAVLVPAGAPHQVQGLVSTISVTQHFLSPETSALSAQLYHQGASLPPDHRMLYAQMDRAVFQAVKAAVGALQEAK

Variants of: B1
Conditions: with Thrb

Variant | effect of a mutation on the interaction
D1005N | with no effect

Reference: IntAct's records for PubMed 15086341
